Measurements published in US20040146949A1, “Methods and compounds for disruption of CD40R/CD40L signaling in the treatment of alzheimer's disease” (priority 2002, published 2004).

Legend:
Type in all cases: cell-based
[1] = test system: N2a cells overexpressing human wild-type APP-695; assay: APP CTFs by Western blot in N2a cells over-expressing APP-695; settings: for alterations in APP CTFs: ligand controls for specificity, data not shown
Procedure: (§1) FIGS. 9a-f: CD40L modulates APP processing in vivo and in vitro. Fig. a: Brain homogenates were prepared from 12-month-old TgAPPsw/CD40L-deficient, control IgG-treated PSAPP, and anti-CD40L antibody-treated PSAPP animals. Representative lanes are shown from each mouse group. […] Fig. d: Cell lysates were prepared from N2a cells overexpressing human wild-type APP-695 and treated with 2 μg/mL of heat-inactivated CD40L (control) or CD40L protein (CD40 ligation) for 24 hours. […] Fig. f: A-β1-40 and A-β1-42 peptides were analyzed in conditioned media from human wild-type APP-695 overexpressing N2a cells by ELISA (n=3 for each condition). Data are represented as percentage of Aβ peptide secreted 24 hours after CD40 ligation relative to heat-inactivated CD40L treatment. […] Similar results were obtained with antibody 6687 or Chemicon polyclonal APP C-terminal antibody (data not shown).
(§2) We also employed an N2a cell line that stably over-expresses the human wild-type APP-695 transgene (Thinakaran, G., et al., “Metabolism of the Swedish’ amyloid precursor protein variant in neuro2a (N2a) cells, Evidence that cleavage at the ‘beta-secretase’ site occurs in the golgi apparatus,” J. Biol. Chem. 271, 9390-9397 (1996)). […] This effect could be alleviated by co-treatment with anti-CD40L antibody, as we detected anti-CD40L antibody in brains of treated PSAPP mice. To determine whether an incrreased ratio of β-CTF to α-CTF after CD40L treatment might be associated with secretion of Aβ, we measured the latter in conditioned transfected N2a cell media by ELISA. […] To confirm the specificity of this effect, we treated these cells with other TNF ligand superfamily members TNF-α or Fas ligand the additional control ligands transforming growth factor-β1 or neurotrophin.
Western blot (FIGS. 8-9). Mouse brains or cultured cells were lysed in ice-cold lysis buffer as described above, and an aliquot corresponding to 50 μg of total protein was electrophoretically separated using 16.5% Tris-tricine gels (Bio-Rad). Electrophoresed proteins were then transferred to PVDF membranes (Bio-Rad), washed in dH20, and blocked for 1 hour at ambient temperature in Tris-buffered saline (TBS) containing 5% (w/v) of non-fat dry milk. After blocking membranes were hybridized for 1 hour at ambient temperature with various antibodies against the C-terminus of APP or the N-terminus of Aβ. […] Densitometric analysis was performed using the Fluor-S Multilmager™ with Quantity One™ software (Bio-Rad). […] Further β- and γ-secretase activities were quantified in Tg APPsw and Tg APPsw/CD40L def. mice using available kits based on secretase-specific peptides conjugated to fluorgenic reporter molecules (R&D Systems, Minneapolis, Minn., USA). […]

[2] = test system: N2a cells overexpressing human wild-type APP-695; assay: secreted Aβ ELISA in conditioned media of N2a cells over-expressing APP-695; settings: for alterations in secretion of Aβ species: ligand controls for specificity, data not shown
Procedure: as §1, §2
ELISA analysis (FIGS. 8-9). Mouse brains (Control, Tg APPsw, CD40L def., and Tg APPsw/CD40L def.) were isolated under sterile conditions on ice and placed in ice-cold lysis buffer (containing 20 mM Tris, pH 7.5, 150 mM NaCl, 1 mM EDTA, 1 mM EGTA, 1% v/v Triton X-100, 2.5 mM sodium pyrophosphate, 1 mM β-glycerolphosphate, 1 mM Na3VO4, 1 µg/mL leupeptin, and 1 mM PMSF). Brains were then sonicated on ice for approximately 3 minutes, let stand for 15 minutes at 4° C., and centrifuged at 15,000 rpm for 15 minutes. Total Aβ species were detected by acid extraction of brain homogenates in 5 M guanidine buffer (Johnson-Wood, K. et al., “Amyloid precursor protein processing and A beta42 deposition in a transgenic mouse model of Alzheimer disease,” Proc. Natl. Acad. Sci USA 94, 1550-1555 (1997)), followed by a 1:10 dilution in lysis buffer. Aβ1-40 and Aβ1-42 and total Aβ (estimated by summing Aβ1-40 and Aβ1-42 values) were quantified in these samples using the Aβ1-40 and Aβ1-42 enzyme-linked immunosorbent assay (ELISA) kits (BioSource, Camarillo, Calif., USA) in accordance with the manufacurer's instruction, except that standards were diluted such that the final concentration included 0.5 M guanidine buffer. Total protein was quantified in brain homogenates using the Bio-Rad protein assay (Bio-Rad, Richmond, Calif., USA); thus, ELISA values were reported as ng of Aβ1-x/wet g of brain. For in vitro analysis of Aβ levels, conditioned media from human APP-over-expressing N2a cells were collected and analyzed at a 1:1 dilution using the method described above, and values were rreported as percentage of Aβ1-x secreted relative to control. […]

[3] = test system: N2a cell line that stably overexpresses the human wild-type APP-751 transgene; assay: α-CTF by Western blot in N2a cells overexpressing APP-751; settings: CD40L treatment over time
Excerpt: We have recently identified CD40 on neurons and neuron-like cells (including the N2a neuroblastoma cell line), and have shown that neuronal CD40 is functional, being intimately involved in neuronal development, survival, and maturation (Tan et al., “CD40 is expressed and functional on neuronal cells,” EMBO J. (2002) 21:643-52). Given our in vivo findings, we wished to determine whether CD40L could directly act on neurons to modulate APP processing. An N2a cell line was established that stably overexpresses (by ˜3 fold) the human wild-type APP-751 transgene (Xia et al., “Enhanced production and oligomerizatio of the 42-residue amyloid beta-protein by Chinese hamster ovary cells stably expressing mutant presenilins,” J. Biol. Chem. (1997) 272:7977-82). […] To confirm whether this reduction in α-CTF might be associated with amyloidogenic processing of APP, we measured secreted Aβ in conditioned media. […] Thus CD40L is able to directly promote amyloidogenic APP processing in neurons or neuron-like cells. […] As the vast majority of cases of AD are associated with accumulation of Aβ from a normal APP sequence, the observation that the processing of normal APP can be pushed towards amyloidogenicity by CD40L is of interest. […]
Western blot. […] Densitometric analysis was perfromed using the Fluor-S Multilmager™ with Quantity One™ software (Bio-Rad). […]

[4] = test system: N2a cell line that stably overexpresses the human wild-type APP-751 transgene; assay: secreted Aβ in conditioned media of N2a cells overexpressing APP-751; settings: CD40L treatment over time
Excerpt: We have recently identified CD40 on neurons and neuron-like cells (including the N2a neuroblastoma cell line), and have shown that neuronal CD40 is functional, being intimately involved in neuronal development, survival, and maturation (Tan et al., “CD40 is expressed and functional on neuronal cells,” EMBO J. (2002) 21:643-52). Given our in vivo findings, we wished to determine whether CD40L could directly act on neurons to modulate APP processing. […] To confirm whether this reduction in α-CTF might be associated with amyloidogenic processing of APP, we measured secreted Aβ in conditioned media. […]
ELISA analysis. […] Total Aβ species were detected by acid extraction of brain homogenates in 5 M guanidine buffer (Johnson-Wood et al., “Amyloid precursor protein processing and A beta42 deposition in a transgenic mouse model of Alzheimer disease,” Proc. Natl. Acad. Sci. USA (1997) 94:1550-55), followed by a 1:10 dilution in lysis buffer. Aβ1-40, Aβ1-42, and total Aβ (estimated by summing Aβ1-40 and Aβ1-42 values) were quantified in these samples using the Aβ1-40 and Aβ1-42 enzyme-linked immunosorbent assay (ELISA) kits (QCB) in accordance with the manufacturer's instruction, except that standards were diluted such that the final concentration included 0.5 M guanidine buffer. […]

[5] = 24 hour treatment, 2 μg/mL, relative to heat-inactivated CD40L

Molecule | alterations in APP CTFs [1] | alterations in secretion of Aβ species [2] | ratio of APP β-CTF to α-CTF ([1]; 2 μg/mL, serum-free conditions, 24 hours, versus heat-inactivated CD40L) | increase in secreted Aβ1-40 levels [2, 5] [%] | increase in secreted Aβ1-42 levels [2, 5] [%] | α-CTF by Western blot [3] | secreted Aβ1-40 levels in conditioned media [4] | secreted Aβ1-42 levels in conditioned media [4]
transforming growth factor-β1: additional control ligand [reference compound] | did not observe alterations | did not observe alterations |  |  |  |  |  | 
TNF-α [reference compound] | did not observe alterations | did not observe alterations |  |  |  |  |  | 
CD40L: CD40L protein (CD40 ligation) added to N2a cells at 2 μg/mL (protein, UniProt P29965 113-261, looked up) CD40 ligand, soluble form: MQKGDQNPQIAAHVISEASSKTTSVLQWAEKGYYTMSNNLVTLENGKQLTVKRQGLYYIYAQVTFCSNREASSQAPFIASLCLKSPGRFERILLRAANTHSSAKPCGQQSIHLGGVFELQPGASVFVNVTDPSQVSHGTGFTSFGLLKL |  |  | increased ratio | ~85 | ~50 | time-dependent decrease | time-dependent increase | time-dependent increase
Fas ligand: other TNF ligand superfamily member used as ligand control (protein, UniProt P48023 130-281, looked up) Tumor necrosis factor ligand …: QIGHPSPPPEKKELRKVAHLTGKSNSRSMPLEWEDTYGIVLLSGVKYKKGGLVINETGLYFVYSKVYFRGQSCNNLPLSHKVYMRNSKYPQDLVMMEGKMMSYCTTGQMWARSSYLGAVFNLTSADHLYVNVSELSLVNFEESQTFFGLYKL | did not observe alterations | did not observe alterations |  |  |  |  |  | 
